From US20260166168A1 (MEDILINK THERAPEUTICS SUZHOU, published 2026) come the findings set out here.

Test [1] deals with canine canis DLL3-ECD-his antigen protein (canine). As to the kind of experiment: ELISA, coated Canis DLL3-his 0.2 µg/mL, antibody titrated.
For test [2], the target named is T1, recombinant extracellular domain protein of rat DLL3 (Rat DLL3-His) (rat, UniProt O88671 33-494).
T1 construct: extracellular domain; Commercial protein; not shown: His tag
T1 sequence (looked up): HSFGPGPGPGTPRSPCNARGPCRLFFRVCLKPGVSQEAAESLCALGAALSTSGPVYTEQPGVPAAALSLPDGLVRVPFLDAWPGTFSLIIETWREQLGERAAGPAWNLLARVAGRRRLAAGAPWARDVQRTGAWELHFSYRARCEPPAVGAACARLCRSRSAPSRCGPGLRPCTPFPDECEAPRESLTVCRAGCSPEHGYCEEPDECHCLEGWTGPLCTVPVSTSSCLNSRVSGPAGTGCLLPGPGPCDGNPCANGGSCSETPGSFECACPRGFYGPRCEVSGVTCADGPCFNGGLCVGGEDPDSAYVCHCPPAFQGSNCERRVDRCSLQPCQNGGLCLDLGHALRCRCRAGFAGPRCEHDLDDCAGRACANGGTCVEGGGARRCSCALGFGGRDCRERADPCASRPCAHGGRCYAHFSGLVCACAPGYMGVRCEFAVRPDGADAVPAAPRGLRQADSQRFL
The experiment in a line: ELISA, coated Rat DLL3-his 0.2 µg/mL, antibody titrated.

Test [3] has as its target T2, recombinant extracellular domain protein of mouse DLL3 (Mouse DLL3-His) (mouse, UniProt O88516 33-490).
T2 construct: extracellular domain; Commercial protein; also called mDLL3; not shown: His tag
T2 sequence (looked up): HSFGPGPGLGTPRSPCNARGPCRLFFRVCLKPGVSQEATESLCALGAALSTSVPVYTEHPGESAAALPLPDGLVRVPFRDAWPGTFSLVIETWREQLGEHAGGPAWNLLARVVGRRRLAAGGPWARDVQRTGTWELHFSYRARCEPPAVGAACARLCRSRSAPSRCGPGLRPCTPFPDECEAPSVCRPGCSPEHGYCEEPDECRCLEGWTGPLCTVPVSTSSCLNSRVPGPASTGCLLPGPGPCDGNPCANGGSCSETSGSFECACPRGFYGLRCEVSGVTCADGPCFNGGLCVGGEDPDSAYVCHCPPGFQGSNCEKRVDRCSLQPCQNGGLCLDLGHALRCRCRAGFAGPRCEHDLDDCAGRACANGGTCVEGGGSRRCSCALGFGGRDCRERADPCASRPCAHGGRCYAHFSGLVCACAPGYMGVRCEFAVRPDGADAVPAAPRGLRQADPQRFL
As to the kind of experiment: ELISA, coated Mouse DLL3-His 0.2 µg/mL, antibody titrated.

The target in test [4] is T3, recombinant extracellular domain protein of human DLL3 (h.DLL3-ECD-His) (human, UniProt Q9NYJ7 27-492).
T3 construct: extracellular domain; Commercial protein; also called human DLL3 antigen; not shown: His tag
T3 sequence (looked up): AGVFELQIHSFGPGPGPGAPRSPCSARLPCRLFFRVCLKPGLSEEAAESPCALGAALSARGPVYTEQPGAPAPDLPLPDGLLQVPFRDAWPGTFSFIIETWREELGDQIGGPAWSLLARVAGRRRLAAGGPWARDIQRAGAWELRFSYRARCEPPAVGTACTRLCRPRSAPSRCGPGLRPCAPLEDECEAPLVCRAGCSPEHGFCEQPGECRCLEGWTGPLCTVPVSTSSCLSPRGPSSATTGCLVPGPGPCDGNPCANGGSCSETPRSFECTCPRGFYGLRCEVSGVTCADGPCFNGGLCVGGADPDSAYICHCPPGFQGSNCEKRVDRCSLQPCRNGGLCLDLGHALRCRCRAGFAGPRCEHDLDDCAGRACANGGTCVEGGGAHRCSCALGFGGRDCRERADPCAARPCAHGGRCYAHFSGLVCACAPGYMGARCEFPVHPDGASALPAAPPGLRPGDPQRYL
As to the kind of experiment: ELISA, coated h.DLL3-ECD-his 0.2 µg/mL, antibody titrated.

For test [5], the target named is T4, recombinant extracellular domain protein of cynomolgus monkey DLL3 (cyno.DLL3-ECD-His) (cynomolgus monkey, UniProt A0A2K5WSR1 27-490).
T4 construct: extracellular domain; Commercial protein; not shown: His tag
T4 sequence: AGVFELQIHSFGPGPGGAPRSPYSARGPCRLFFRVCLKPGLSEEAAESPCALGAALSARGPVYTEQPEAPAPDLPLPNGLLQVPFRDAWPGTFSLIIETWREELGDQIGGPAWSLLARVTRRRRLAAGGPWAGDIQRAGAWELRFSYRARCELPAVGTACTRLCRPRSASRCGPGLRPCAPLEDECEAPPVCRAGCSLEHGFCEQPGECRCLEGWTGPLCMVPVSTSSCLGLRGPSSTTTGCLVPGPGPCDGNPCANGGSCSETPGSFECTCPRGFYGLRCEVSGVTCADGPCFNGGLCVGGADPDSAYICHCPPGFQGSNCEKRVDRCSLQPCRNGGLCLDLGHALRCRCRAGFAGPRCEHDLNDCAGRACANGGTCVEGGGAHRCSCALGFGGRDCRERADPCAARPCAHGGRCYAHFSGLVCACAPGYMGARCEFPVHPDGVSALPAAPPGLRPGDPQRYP
As to the kind of experiment: ELISA, coated cyno.DLL3-ECD-his 0.2 µg/mL, antibody titrated.

The target of test [6] is T3, recombinant extracellular domain …. The experiment in a line: ELISA, coated hDLL3-ECD-his, murine antibody titrated.
Test [7] has as its target T5, human DLL1 on 293T-hDLL1 cells (human, UniProt O00548 18-723).
T5 construct: whole, on cells; also called 293T-DLL1; HEK293T-hDLL1
T5 sequence (looked up): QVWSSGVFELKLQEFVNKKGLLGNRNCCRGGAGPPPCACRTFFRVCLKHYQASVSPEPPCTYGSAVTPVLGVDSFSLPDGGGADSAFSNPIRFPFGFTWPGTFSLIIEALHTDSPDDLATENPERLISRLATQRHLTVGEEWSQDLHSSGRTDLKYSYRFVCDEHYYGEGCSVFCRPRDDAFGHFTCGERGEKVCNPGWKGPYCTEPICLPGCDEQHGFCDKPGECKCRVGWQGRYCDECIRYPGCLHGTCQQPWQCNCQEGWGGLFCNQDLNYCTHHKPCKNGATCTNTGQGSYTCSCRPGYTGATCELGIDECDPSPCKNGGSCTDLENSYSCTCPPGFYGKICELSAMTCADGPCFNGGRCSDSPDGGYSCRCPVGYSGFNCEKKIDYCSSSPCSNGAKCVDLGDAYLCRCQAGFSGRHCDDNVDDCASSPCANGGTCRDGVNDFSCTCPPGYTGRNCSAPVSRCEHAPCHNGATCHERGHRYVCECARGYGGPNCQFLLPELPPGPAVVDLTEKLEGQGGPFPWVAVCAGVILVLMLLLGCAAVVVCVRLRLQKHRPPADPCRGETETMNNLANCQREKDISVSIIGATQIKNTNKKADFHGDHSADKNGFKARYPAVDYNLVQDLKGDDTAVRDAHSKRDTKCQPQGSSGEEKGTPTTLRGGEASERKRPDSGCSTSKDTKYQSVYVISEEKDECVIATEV
As to the kind of experiment: flow cytometry on 293T-hDLL1 cells, antibody 20 µg/mL.

In test [8] the target is T6, human DLL4 on 293T-hDLL4 cells (human, UniProt Q9NR61 27-685).
T6 construct: whole, on cells; also called 293T-DLL4; HEK293T-hDLL4
T6 sequence (Q9NR61 27-685): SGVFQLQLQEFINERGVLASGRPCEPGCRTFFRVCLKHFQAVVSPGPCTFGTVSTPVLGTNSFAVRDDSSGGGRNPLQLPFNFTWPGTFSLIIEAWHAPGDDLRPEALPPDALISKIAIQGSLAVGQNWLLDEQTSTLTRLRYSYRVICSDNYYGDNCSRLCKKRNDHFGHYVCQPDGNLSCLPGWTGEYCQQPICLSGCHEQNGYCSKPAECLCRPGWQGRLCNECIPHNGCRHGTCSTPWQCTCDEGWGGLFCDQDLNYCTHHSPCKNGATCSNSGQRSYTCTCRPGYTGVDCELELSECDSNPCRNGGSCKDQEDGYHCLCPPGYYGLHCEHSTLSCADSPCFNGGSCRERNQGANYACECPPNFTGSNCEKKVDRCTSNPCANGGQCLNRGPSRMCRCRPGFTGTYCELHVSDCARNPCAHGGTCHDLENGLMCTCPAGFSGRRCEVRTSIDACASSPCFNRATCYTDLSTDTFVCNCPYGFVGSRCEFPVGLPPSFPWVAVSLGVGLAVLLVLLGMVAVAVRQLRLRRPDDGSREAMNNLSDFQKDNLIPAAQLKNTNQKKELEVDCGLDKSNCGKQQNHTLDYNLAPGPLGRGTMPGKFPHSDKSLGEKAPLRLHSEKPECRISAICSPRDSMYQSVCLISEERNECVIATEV
As to the kind of experiment: flow cytometry on 293T-hDLL4 cells, antibody 20 µg/mL.

The target of test [9] is T4, recombinant extracellular domain …. The experiment in a line: ELISA, coated cynoDLL3-ECD-his, murine antibody titrated.

B1: 6F11C10-Hz2 antibody (antibody, human IgG1, kappa, V domains shown)
VH: EVQLVQSGAEVKKPGASVKVSCKASGFTFTDYYMHWVRQAPGQSLEWMGLVYPYSGDISYAQKFQGRVTLTVDTSISTAYMELSRLRSDDTAVYYCARQGNYVNNAIDYWGQGTLVTVSS
VL: DIQMTQSPSSLSASVGDRVTITCKASQNVGNIIAWYQQKPGKSPKALIYLASYRYSGVPSRFSGSGSGTDFTLTISSLQPEDVATYFCQQYSDSPYTFGQGTKVEIKR
notes: Optimized humanized IgG1/kappa; also called 6FC11C0-Hz2; 6F11C10-Hz2-biotin
On to B1, for which the EC50 in test [1] amounted to 17.2 ng/mL; in test [2], 7.35 ng/mL; in test [3], 30.1 ng/mL; in test [4], 8.23 ng/mL; in test [5], 10.8 ng/mL.

B2: murine antibody 55C11E4 (antibody, V domains shown)
VH: EVQLQQSGPVLVKPGASVKMSCKASGYTFTDYYMNWVKQSHGKSLEWIGVINPYNGGTNYSQKFKGKATLTVDKSSSTAYMELNSLTSEDSAVYYCARDSNYVGLLDYWGQGTSVTVSS
VL: DIVLTQSPATLSVTPGDSVSLSCRASQSISNNLHWYQQKSHESPRLLIKYASQSISGIPSRFSGSGSGPDFTLSIDSVETEDFGVYFCQQSNSWPYTFGGGTKLEIK
notes: Murine antibody purified from hybridoma supernatant
On to B2, for which the results for the concentration for a half-maximal effect (EC50) in test [6] and in test [9] were 56.7 ng/mL and 40.9 ng/mL, respectively. Further, the values for the positive rate in test [7] and in test [8] were 0.92% and 0.1%, respectively.

B3: murine antibody 59B10D3 (antibody, V domains shown)
VH: EVKLEESGGGLVQPGGSMKLSCAASGFTFSDAWMDWVRQSPEKGLEWIAEIRNKANNHATYYTESVKGRFTISRDDSKSSVYLQMISLRPEDTGIYYCTRNNYGSTWTYYAMDYWGQGTSVTVSS
VL: DIQMTQTSSSLSASLGDRVTINCRASQDISNYLNWYQQKPDGTVKLLIYYTSRLHSGVPSRFSGSGSGTDYSLTISNLEHEDIATYFCQQGYTLPLTFGAGTNLELK
notes: as for B2
In the case of B3, the concentration giving a half-maximal response (EC50) worked out at 1.3 ng/mL in test [6] and 1.25 ng/mL in test [9]. The positive rate was 6.3% in test [7] and 0.67% in [8].

B4: murine antibody 6F11C10 (antibody, V domains shown)
VH: EVHLQQSGPVLVKPGPSVKISCKASGFTFTDYYMHWVKQSHGKSLEWIGLVYPYNGDISYNQKFKGKATLTVDTSSSTAYMELNSLTSEDSAVYYCARQGNYVNNAIDYWGQGTSVTVSS
VL: DIVMTQSQKFMSTSVGDRVSISCKASQNVGNIIAWYQQKPGQSPKALIYLASYRYSGVPDRFTGSGSGTDFTLTINNVQSEDLAEYFCQQYSDSPYTFGSGTKLEI
notes: as for B2
As for B4, the values for the half-maximal effective concentration (EC50) in test [6] and in test [9] were 7.59 ng/mL and 19.5 ng/mL, respectively. For the same molecule, the results for the positive rate in test [7] and in test [8] were 0.64% and 0.76%, respectively.

B5: murine antibody 87F7F10 (antibody, V domains shown)
VH: DVQLQESGPGLVKPSQSLSLTCSVTGYSITSDFYWNWIRQFPGNKLEWMGYITYDGSTNYDPSLKNRISITRDTSKNQFFLKLNSVTAEDTATYYCVYGDFNRHAMDYWGQGTSVTVSS
VL: DIVMSQSPSSLAVSAGEKVTMSCRSSQSLFNSRTRKNYLAWYQQKPGQPPKVLIYWASTRESGVPDRFTGSGSGTDFTLTISSVQAEDLAVYYCEQSFYLFTFGTGTKLEI
notes: as for B2
As for B5, the half-maximal effective concentration (EC50) in test [6] was found to be 1.68 ng/mL; in test [9] it was 1.31 ng/mL. In addition, the positive rate was determined as 1.84% in [7] and 0.42% in test [8].

B6: 55C11E4-Hz2 (antibody, human IgG1, kappa, V domains shown)
VH: EVQLVQSGAEVKKPGASVKVSCKASGYTFTDYYMNWVRQAPGQRLEWMGVINPYNGGTNYAQKFQGRVTLTVDKSASTAYMELSSLRSEDTAVYYCARDSNYVGLLDYWGQGTLVTVSS
VL: DIVLTQSPATLSLSPGERATLSCRASQSISNNLHWYQQKPGQAPRLLIKYASQSISGIPARFSGSGSGPDFTLTISSLEPEDFAVYFCQQSNSWPYTFGQGTKVEIKR
notes: Optimized humanized IgG1/kappa; also called 55C11E4-Hz2-biotin
Consider B6, for which the EC50 stood at 12.9 ng/mL in [1]; 3.67 ng/mL in [2]; 21.3 ng/mL in test [3]; 4.95 ng/mL in test [4]; 4.98 ng/mL in test [5].
